Data taken from patent US20180079819A1.

How the values were obtained:
[1] = target: extracellular domain of CD123/IL-3Rα (residues 1-306), histidine tagged (human) (UniProt P26951); assay: ELISA on plate-coated His-tagged protein, A450
[2] = target: IL3Rα (1-100) chimeric receptor protein: IL3Rα residues 1-100 fused to GMRα residues 115-325, His-tagged (human) (UniProt P15509); assay: ELISA on plate-coated His-tagged protein, A450
IL3Rα (1-100) chimeric receptor protein: IL3Rα residues 1-100 fused to GMRα residues 115-325, His-tagged (human), sequence (P15509 other isoform, or with tags, fused parts or gaps mutant limits assumed, form in doubt): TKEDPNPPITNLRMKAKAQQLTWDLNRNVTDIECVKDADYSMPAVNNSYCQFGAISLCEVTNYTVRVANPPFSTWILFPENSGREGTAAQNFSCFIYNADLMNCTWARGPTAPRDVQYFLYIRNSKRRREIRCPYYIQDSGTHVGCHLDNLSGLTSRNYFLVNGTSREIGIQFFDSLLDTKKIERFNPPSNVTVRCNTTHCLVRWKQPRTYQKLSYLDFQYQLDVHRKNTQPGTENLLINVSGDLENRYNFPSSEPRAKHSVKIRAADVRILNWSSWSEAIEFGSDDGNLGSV

extracellular domain of CD123/IL-3Rα (residues 1-306), histidine tagged (human), sequence (P26951 19-306): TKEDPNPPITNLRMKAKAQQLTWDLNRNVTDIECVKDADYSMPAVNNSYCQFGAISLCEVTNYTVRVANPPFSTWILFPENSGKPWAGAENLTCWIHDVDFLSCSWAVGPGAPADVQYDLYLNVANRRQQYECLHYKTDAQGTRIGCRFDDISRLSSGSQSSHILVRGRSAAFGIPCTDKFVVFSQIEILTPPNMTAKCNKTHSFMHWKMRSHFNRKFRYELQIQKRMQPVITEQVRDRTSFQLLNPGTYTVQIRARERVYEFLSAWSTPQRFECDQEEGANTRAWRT

Substance: ch7G3 (antibody)
- EC50 [1]: 0.027 nM
- EC50 [2]: 0.0306 nM
